# What was measured:
# [1] = target: Taq DNA polymerase (wild type) (Thermus aquaticus, UniProt P19821 1-832); experiment: EMSA; 50 mM KCl (enzyme's KCl optimum); 0.25 nM hairpin, 0.5-1000 nM enzyme, 1x Taq buffer (50 mM KCl for wild type, 95 mM KCl for mutants; full composition and pH not stated for this assay), 37 C, 30; settings: protein: recombinant, tags: none (His tag removed, pET11), label: 5' 33P, recessed 3' end, 5' overhang
# Taq E507K = Taq E507K (Thermus aquaticus, UniProt P19821 1-832, E507K); experiment: EMSA; 95 mM KCl; 0.25 nM hairpin, 0.5-1000 nM enzyme, 1x Taq buffer (50 mM KCl for wild type, 95 mM KCl for mutants; full composition and pH not stated for this assay), 37 C, 30; settings: protein: recombinant, label: 5' 33P, recessed 3' end, 5' overhang
# Taq G59W = Taq G59W (Thermus aquaticus, UniProt P19821 1-832, G59W); experiment: EMSA; 95 mM KCl (Methods: all assays with Taq mutants); text gives 91 nM; 0.25 nM hairpin, 0.5-1000 nM enzyme, 1x Taq buffer (50 mM KCl for wild type, 95 mM KCl for mutants; full composition and pH not stated for this assay), 37 C, 30; settings: protein: recombinant, label: 5' 33P, recessed 3' end, 5' overhang
binder,measurement,setting,value
"hairpin primer-template (structured_DNA, 3' end blocked with dideoxy TMP (3' ddT; unclear whether the printed 3' T is the ddT or it is added)) DNA: CTCCAGACACGACGCAGTTGCCCGATGGTCGACGTTCGCGAAAGCGAACGTCGACCATCGGGCAACT",Kd,[1],102 nM
same,Kd,Taq E507K,1.1 nM
same,Kd,Taq G59W,91.6 nM
